Data: the supplement of paper PMC9112550, “Optimization of the antimicrobial peptide Bac7 by deep mutational scanning” (BMC Biology, 2022)

Tested on: Escherichia coli TOP10
Assay: shrunken log2 fold change of peptide-encoding DNA abundance (4.5 h post-induction vs induction); higher = less antimicrobial activity (less host growth inhibition)
Details: time post-induction: 4.5 h; library: site-saturation at positions 5, 18, 19, 20
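Also: peptides expressed intracellularly from a pBAD plasmid library in pooled LB shake-flask culture, induced with 0.3% L-arabinose, DNA abundance read by NGS, three biological replicates, DESeq2 with apeglm shrinkage.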

Sequence	shrunken log2 fold change
RRIRARPPRLPRPRPRPFWCPRP	0.0247
RRIRARPPRLPRPRPRPGATPRP	0.959
RRIRARPPRLPRPRPRPGECPRP	0.298
RRIRARPPRLPRPRPRPGFKPRP	-0.02
RRIRARPPRLPRPRPRPGFWPRP	0.682
RRIRARPPRLPRPRPRPGGAPRP	0.76
RRIRARPPRLPRPRPRPGIIPRP	0.106
RRIRARPPRLPRPRPRPGKGPRP	0.158
RRIRARPPRLPRPRPRPGKQPRP	0.292
RRIRARPPRLPRPRPRPGLMPRP	0.524
RRIRARPPRLPRPRPRPGMKPRP	0.186
RRIRARPPRLPRPRPRPGRAPRP	0.731
RRIRARPPRLPRPRPRPGRDPRP	0.671
RRIRARPPRLPRPRPRPGSEPRP	0.0951
RRIRARPPRLPRPRPRPGTWPRP	0.161
RRIRARPPRLPRPRPRPGVAPRP	1.05
RRIRARPPRLPRPRPRPGVLPRP	0.2
RRIRARPPRLPRPRPRPGVMPRP	0.437
RRIRARPPRLPRPRPRPGWYPRP	0.437
RRIRARPPRLPRPRPRPHAFPRP	0.231

Sequence	shrunken log2 fold change
RRIRARPPRLPRPRPRPHCSPRP	-0.131
RRIRARPPRLPRPRPRPHDNPRP	0.00651
RRIRARPPRLPRPRPRPHEQPRP	0.257
RRIRARPPRLPRPRPRPHFLPRP	-0.127
RRIRARPPRLPRPRPRPHFTPRP	0.345
RRIRARPPRLPRPRPRPHGWPRP	0.184
RRIRARPPRLPRPRPRPHHAPRP	0.0775
RRIRARPPRLPRPRPRPHHFPRP	-0.0814
RRIRARPPRLPRPRPRPHHHPRP	-0.469
RRIRARPPRLPRPRPRPHHKPRP	-0.347
RRIRARPPRLPRPRPRPHHLPRP	-0.313
RRIRARPPRLPRPRPRPHIHPRP	-0.45
RRIRARPPRLPRPRPRPHIYPRP	-0.805
RRIRARPPRLPRPRPRPHKEPRP	0.131
RRIRARPPRLPRPRPRPHKMPRP	0.118
RRIRARPPRLPRPRPRPHMAPRP	-0.183
RRIRARPPRLPRPRPRPHNCPRP	-0.162
RRIRARPPRLPRPRPRPHQDPRP	-0.126
RRIRARPPRLPRPRPRPHQEPRP	0.568
RRIRARPPRLPRPRPRPHQGPRP	-0.0611

Sequence	shrunken log2 fold change
RRIRARPPRLPRPRPRPHQMPRP	-0.066
RRIRARPPRLPRPRPRPHSFPRP	0.00388
RRIRARPPRLPRPRPRPHSYPRP	0.0128
RRIRARPPRLPRPRPRPHTNPRP	-0.227
RRIRARPPRLPRPRPRPHTWPRP	0.0641
RRIRARPPRLPRPRPRPHVMPRP	-0.0593
RRIRARPPRLPRPRPRPHWFPRP	0.0804
RRIRARPPRLPRPRPRPHWHPRP	-0.0354
RRIRARPPRLPRPRPRPHWIPRP	-0.277
RRIRARPPRLPRPRPRPHYIPRP	-0.296
RRIRARPPRLPRPRPRPHYNPRP	-0.467
RRIRARPPRLPRPRPRPIACPRP	0.0285
RRIRARPPRLPRPRPRPIASPRP	-0.0816
RRIRARPPRLPRPRPRPIATPRP	1.21
RRIRARPPRLPRPRPRPIAWPRP	0.442
RRIRARPPRLPRPRPRPICLPRP	0.425
RRIRARPPRLPRPRPRPICNPRP	0.176
RRIRARPPRLPRPRPRPIDFPRP	0.125
RRIRARPPRLPRPRPRPIFVPRP	0.233
RRIRARPPRLPRPRPRPIFWPRP	0.305
